Experiments:
H-ras protein = H-ras protein (Homo sapiens, UniProt P01112); assay: Typical GAP assay with immunoprecipitated H-ras bound to α-32P-GTP, TLC; format: biochemical; conditions: sufficient GAP; 60 minutes at room temperature
Text: A typical GAP assay can be carried out as follows. Approximately 0.8 micrograms of H-ras protein obtained as described by Trahey, et al., supra was bound to α-32P-GTP followed by precipitation of the complex with 13 micrograms of an anti-ras antibody, 157-181, that recognizes the carboxyl terminal end of the molecule. Specifically, 157-181 recognizes the carboxyl terminal residues at positions 157-181. Adari et al., 1988 Science, […]:518. Next, 10 micrograms of sheep-anti-mouse IgG, and 10 microliters of protein A-Sepharose beads were added. As a control, the same reactants were combined except that rat IgG replaced 157-181, and goat anti-rat IgG replaced sheep anti-mouse IgG. The pellets were washed with 20 mM tris hydrochloride, pH 7.4, containing 20 mM sodium chloride, 1 mM magnesium chloride and 1 mM DTT and resuspended in the same solution. Four microliter aliquots of the immune complex were then mixed with 10 microliters of GAP, or, as a control, buffer without GAP. After 60 minutes incubation at room temperature the Sepharose beads were washed again, and the bound nucleotides analyzed using thin layer chromatography with 1M LiCl as the solvent. […] The assay detects GAP in a semi-quantitative, dose-dependent fashion. Quantitation can be improved by scraping the relevant regions of the plate and measuring cpm in GDP by use of a gamma counter.

ras p21 protein = assay: Filter assay of ras p21 hydrolysis of 32-P gamma-GTP with and without GAP; format: biochemical; conditions: FIG. 13; presence and absence of GAP; 30 minutes at room temperature
Description: The above four peptides, in the following two experiments, were tested for their abilities to inhibit the hydrolysis of GTP by ras p21 protein, in the presence and absence of GAP. The first experiment involved peptides G65, G73 and 891. It was carried out as follows: purified wild type ras p21 protein was incubated with 0.25 μM 32-P gamma-GTP in 100 mM NaPO4, pH 6.8, 0.5 mM DTT, 0.5 mM EDTA, 0.005% Na cholate, and 0.5 mg/ml BSA for 15 minutes at 30° C. The mixture was then diluted ten fold with TNM buffer (comprising 20 mM Tris-HCl, pH 7.0, 100 mM NaCl, 5 mM MgCl2). 20 μl (0.05 μg of p21) of this mixture was then combined with 2 μl of the peptide in 25 mM NaOAc, pH 5.5 and incubated for 5 minutes at room temperature. The GAP assay was initiated by the addition of 12 ng GAP in 5 μl TNM buffer with 1 mg/ml BSA or 5 μl TNM BSA buffer for the GAP independent reactions, and the resulting mixture was incubated for 30 minutes at room temperature. The samples were then filtered through nitrocellulose membranes and washed three times with cold TNM. The filters were dried and their radioactivity counted. […] In the presence of GAP, the radioactive ras p21-GTP complex is hydrolyzed to GDP and ras p21 protein, thus reducing the resulting amount of radioactive p21-GTP bound to the filter and consequently, the radioactive counts detected. […]

H-ras protein, sequence (P01112 whole entry): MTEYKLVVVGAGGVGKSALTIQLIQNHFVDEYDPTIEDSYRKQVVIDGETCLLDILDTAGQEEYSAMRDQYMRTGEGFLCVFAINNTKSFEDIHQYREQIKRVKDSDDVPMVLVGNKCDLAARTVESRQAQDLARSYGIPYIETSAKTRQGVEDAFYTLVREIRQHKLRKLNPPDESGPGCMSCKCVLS

Row | Substance | hydrolysis of GTP to GDP (H-ras protein) | effect on hydrolysis of GTP (radioactive counts of ras p21-GTP complex on filter) (ras p21 protein)
1 | GAP: guanine triphosphatase activating protein purified from human placenta, about 115,000-120,000 daltons | near complete hydrolysis | –
2 | peptide G73: peptide corresponding to amino acids positions 975-990 of the full length GAP (GNVPELPDTTEHSRTD; UniProt P20936 975-990, looked up, fragment) | – | do not affect
